{"source": "patent US20050043264", "proteins": {"B1": {"name": "Drosophila Abl kinase (endogenous, BG2-c2 neuronal cells) (protein)", "chain": "MGAQQGKDRGAHSGGGGSGAPVSCIGLSSSPVASVSPHCISSSSGVSSAPLGGGSTLRGSRIKSSSSGVASGSGSGGGGGGSGSGLSQRSGGHKDARCNPTVGLNIFTEHNEALLQSRPLPHIPAGSTAASLLADAAELQQHQQDSGGLGLQGSSLGGGHSSTTSVFESAHRWTSKENLLAPGPEEDDPQLFVALYDFQAGGENQLSLKKGEQVRILSYNKSGEWCEAHSDSGNVGWVPSNYVTPLNSLEKHSWYHGPISRNAAEYLLSSGINGSFLVRESESSPGQRSISLRYEGRVYHYRISEDPDGKVFVTQEAKFNTLAELVHHHSVPHEGHGLITPLLYPAPKQNKPTVFPLSPEPDEWEICRTDIMMKHKLGGGQYGEVYEAVWKRYGNTVAVKTLKEDTMALKDFLEEAAIMKEMKHPNLVQLIGVCTREPPFYIITEFMSHGNLLDFLRSAGRETLDAVALLYMATQIASGMSYLESRNYIHRDLAARNCLVGDNKLVKVADFGLARLMRDDTYTAHAGAKFPIKWTAPEGLAYNKFSTKSDVWAFGVLLWEIATYGMSPYPAIDLTDVYHKLDKGYRMERPPGCPPEVYDLMRQCWQWDATDRPTFKSIHHALEHMFQESSITEAVEKQLNANATSASSSAPSTSGVATGGGATTTTAASGCASSSSATASLSLTPQMVKKGLPGGQALTPNAHHNDPHQQQASTPMSETGSTSTKLSTFSSQGKGNVQMRRTTNKQGKQAPAPPKRTSLLSSSRDSTYREEDPANARCNFIDDLSTNGLARDINSLTQRYDSETDPAADPDTDATGDSLEQSLSQVIAAPVTNKMQHSLHSGGGGGGIGPRSSQQHSSFKRPTGTPVMGNRGLETRQSKRSQLHSQAPGPGPPSTQPHHGNNGVVTSAHPITVGALDVMNVKQVVNRYGTLPKGARIGAYLDSLEDSSEAAPALPATAPSLPPANGHATPPAARLNPKASPIPPQQMIRSNSSGGVTMQNNAAASLNKLQRHRTTTEGTMMTFSSFRAGGSSSSPKRSASGVASGVQPALANLEFPPPPLDLPPPPEEFEGGPPPPPPAPESAVQAIQQHLHAQLPNNGNISNGNGTNNNDSSHNDVSNIAPSVEEASSRFGVSLRKREPSTDSCSSLGSPPEDLKEKLITEIKAAGKDTAPASHLANGSGIAVVDPVSLLVTELAESMNLPKPPPQQQQKLTNGNSTGSGFKAQLKKVEPKKMSAPMPKAEPANTIIDFKAHLRRVDKEKEPATPAPAPATVAVANNANCNTTGTLNRKEDGSKKFSQAMQKTEIKIDVTNSNVEADAGAAGEGDLGKRRSTGSINSLKKLWEQQPPAPDYATSTILQQQPSVVNGGGTPNAQLSPKYGMKSGAINTVGTLPAKLGNKQPPAAPPPPPPNCTTSNSSTTSISTSSRDCTSRQQASSTIKTSHSTQLFTDDEEQSHTEGLGSGGQGSADMTQSLYEQKPQIQQKPAVPHKPTKLTIYATPIAKLTEPASSASSTQISRESILELVGLLEGSLKHPVNAIAGSQWLQLSDKLNILHNSCVIFAENGAMPPHSKFQFRELVTRVEAQSQHLRSAGSKNVQDNERLVAEVGQSLRQISNALNR"}}, "key": {"[1]": {"target": "Drosophila Cdk5 (endogenous, BG2-c2 neuronal cells), P48609", "sequence (P48609 whole entry)": "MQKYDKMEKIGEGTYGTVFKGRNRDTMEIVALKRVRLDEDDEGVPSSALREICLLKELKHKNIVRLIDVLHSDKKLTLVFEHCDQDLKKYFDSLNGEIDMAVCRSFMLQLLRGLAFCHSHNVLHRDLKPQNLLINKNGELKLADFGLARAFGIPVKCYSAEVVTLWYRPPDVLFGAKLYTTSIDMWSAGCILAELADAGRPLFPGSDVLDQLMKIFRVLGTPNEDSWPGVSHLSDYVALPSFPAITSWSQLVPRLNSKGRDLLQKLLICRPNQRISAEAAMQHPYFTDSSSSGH"}, "[2]": {"target": "T1, Drosophila Ena (overexpressed in BG2-c2 cells), Q8T4F7", "T1 chain": "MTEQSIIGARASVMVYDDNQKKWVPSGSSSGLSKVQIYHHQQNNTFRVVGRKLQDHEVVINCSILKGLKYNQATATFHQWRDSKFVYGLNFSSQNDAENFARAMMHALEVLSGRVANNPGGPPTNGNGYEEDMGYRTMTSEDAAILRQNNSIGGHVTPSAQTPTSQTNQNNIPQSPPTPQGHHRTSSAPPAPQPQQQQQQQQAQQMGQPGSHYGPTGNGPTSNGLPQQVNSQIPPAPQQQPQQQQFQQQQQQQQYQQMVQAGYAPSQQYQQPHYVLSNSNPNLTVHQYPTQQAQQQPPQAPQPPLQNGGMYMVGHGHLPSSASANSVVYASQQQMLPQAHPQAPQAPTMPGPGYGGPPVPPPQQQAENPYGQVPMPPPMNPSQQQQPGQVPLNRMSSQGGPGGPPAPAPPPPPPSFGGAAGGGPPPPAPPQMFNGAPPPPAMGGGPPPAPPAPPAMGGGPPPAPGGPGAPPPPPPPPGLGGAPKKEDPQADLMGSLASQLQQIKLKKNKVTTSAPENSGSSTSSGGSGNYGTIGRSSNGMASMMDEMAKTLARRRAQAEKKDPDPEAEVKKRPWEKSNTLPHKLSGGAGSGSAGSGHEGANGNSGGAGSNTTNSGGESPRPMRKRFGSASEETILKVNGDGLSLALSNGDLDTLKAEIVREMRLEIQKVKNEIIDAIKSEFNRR"}}}
{"protein": "B1", "values": [{"measurement": "Cdk5-Y15 phosphorylation (Cdk5-pY15) and Cdk5 kinase activity after STI571 or dsRNA-abl", "setting": "[1]", "result": "both the Cdk5-pY15 and kinase activity were diminished"}, {"measurement": "tyrosine-phosphorylation level of Ena", "setting": "[2]", "result": "Ena phosphorylation levels were elevated by Aβ42 but reduced by STI571"}]}
